Results on one substance are retold here after PMC3792966.

This experiment concerns the target SspA of F. tularensis SCHU S4 fused to the Zif protein (F. tularensis SCHU S4). In words: two-hybrid.

Take “MglA of F. tularensis SCHU S4 fused to the ω subunit of E. coli RNA polymerase (natural protein)”: the β-galactosidase activity in strain AW23 was 2400 AU and the β-galactosidase activity in strain AW24 was 26000 AU.
